Results: patent publication US20220204580A1 (AstraZeneca / MedImmune, published 2022)
One block for each binder: values may come before it. Numbered stars: 1 amine (or outer) side, 2 acyl side, 3 side chain; on linkers, the order of the positions; unused ones are H or OH. Bridge positions count the residues as written; N and C are the ends. Square brackets hold non-standard residues; d marks the D form. Side chains are listed from the residue outwards. Ends that are not written are not given here. * marks the point of attachment. C18 diacid = O=C(O)CCCCCCCCCCCCCCCCC(=O)*; γGlu = O=C(O)[C@H](CCC(=O)[*:2])N[*:1]; αMeF = C[C@](N)(Cc1ccccc1)C(=O)O; Dab = NCC[C@H](N)C(=O)O; Aib = CC(C)(N)C(=O)O

Experiments:
[1] = biological target: T1, human amylin receptor (calcitonin receptor co-expressed with receptor activity modifying protein, RAMP3) (human, UniProt P30988 25-474; O60896 24-148); experiment: cell-based or functional assay
T1 sequence (looked up) 1: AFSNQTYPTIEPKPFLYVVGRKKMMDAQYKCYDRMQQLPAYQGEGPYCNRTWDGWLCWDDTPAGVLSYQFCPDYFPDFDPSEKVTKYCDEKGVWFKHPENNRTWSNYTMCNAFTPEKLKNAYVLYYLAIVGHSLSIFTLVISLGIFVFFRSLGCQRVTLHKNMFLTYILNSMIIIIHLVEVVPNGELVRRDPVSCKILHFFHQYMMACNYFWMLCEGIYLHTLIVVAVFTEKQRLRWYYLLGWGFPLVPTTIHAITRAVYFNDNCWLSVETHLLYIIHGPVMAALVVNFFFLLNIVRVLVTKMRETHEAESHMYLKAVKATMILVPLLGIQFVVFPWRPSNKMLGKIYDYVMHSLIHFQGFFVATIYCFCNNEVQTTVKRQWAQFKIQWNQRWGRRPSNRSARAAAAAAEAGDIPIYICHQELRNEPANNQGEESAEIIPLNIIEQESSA
T1 sequence (looked up) 2: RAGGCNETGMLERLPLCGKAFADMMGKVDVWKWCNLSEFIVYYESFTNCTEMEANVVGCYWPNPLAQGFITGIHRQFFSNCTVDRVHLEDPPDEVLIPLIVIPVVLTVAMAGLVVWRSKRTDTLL

[2] = biological target: T2, human calcitonin receptor (human, UniProt P30988 25-474); experiment: cell-based or functional assay
T2 sequence (looked up): T1 sequence (looked up) 1

EC50 (cAMP production) [1]: 737 pM
Ratio (EC50 hCTR / EC50 hAMYR3) [1]: 20.5
EC50 (cAMP production) [2]: 15100 pM
B1: Peptide 131 (SEQ ID NO: 131) (peptide)
peptide: K([γGlu-C18 diacid])KCNTATCATQRLANFL[Aib]HSSHNFGPILPPTNVGSNTY-NH2
modifications: disulfide 3-8; N-terminus assumed
SMILES: CC[C@H](C)[C@H](NC(=O)[C@@H]1CCCN1C(=O)CNC(=O)[C@H](Cc1ccccc1)NC(=O)[C@H](CC(N)=O)NC(=O)[C@H](Cc1c[nH]cn1)NC(=O)[C@H](CO)NC(=O)[C@H](CO)NC(=O)[C@H](Cc1c[nH]cn1)NC(=O)C(C)(C)NC(=O)[C@H](CC(C)C)NC(=O)[C@H](Cc1ccccc1)NC(=O)[C@H](CC(N)=O)NC(=O)[C@H](C)NC(=O)[C@H](CC(C)C)NC(=O)[C@H](CCCNC(=N)N)NC(=O)[C@H](CCC(N)=O)NC(=O)[C@@H](NC(=O)[C@H](C)NC(=O)[C@@H]1CSSC[C@H](NC(=O)[C@H](CCCCN)NC(=O)[C@@H](N)CCCCNC(=O)CC[C@H](NC(=O)CCCCCCCCCCCCCCCCC(=O)O)C(=O)O)C(=O)N[C@@H](CC(N)=O)C(=O)N[C@@H]([C@@H](C)O)C(=O)N[C@@H](C)C(=O)N[C@@H]([C@@H](C)O)C(=O)N1)[C@@H](C)O)C(=O)N[C@@H](CC(C)C)C(=O)N1CCC[C@H]1C(=O)N1CCC[C@H]1C(=O)N[C@H](C(=O)N[C@@H](CC(N)=O)C(=O)N[C@H](C(=O)NCC(=O)N[C@@H](CO)C(=O)N[C@@H](CC(N)=O)C(=O)N[C@H](C(=O)N[C@@H](Cc1ccc(O)cc1)C(N)=O)[C@@H](C)O)C(C)C)[C@@H](C)O

EC50 (cAMP production) [1]: 446 pM
Ratio (EC50 hCTR / EC50 hAMYR3) [1]: 15
EC50 (cAMP production) [2]: 6690 pM
B2: Peptide 130 (SEQ ID NO: 130) (peptide)
peptide: K([γGlu-C18 diacid])KCNTATCATQRLAEFL[Aib]HSSHNFGPILPPTNVGSNTY-NH2
modifications: disulfide 3-8; N-terminus assumed
SMILES: CC[C@H](C)[C@H](NC(=O)[C@@H]1CCCN1C(=O)CNC(=O)[C@H](Cc1ccccc1)NC(=O)[C@H](CC(N)=O)NC(=O)[C@H](Cc1c[nH]cn1)NC(=O)[C@H](CO)NC(=O)[C@H](CO)NC(=O)[C@H](Cc1c[nH]cn1)NC(=O)C(C)(C)NC(=O)[C@H](CC(C)C)NC(=O)[C@H](Cc1ccccc1)NC(=O)[C@H](CCC(=O)O)NC(=O)[C@H](C)NC(=O)[C@H](CC(C)C)NC(=O)[C@H](CCCNC(=N)N)NC(=O)[C@H](CCC(N)=O)NC(=O)[C@@H](NC(=O)[C@H](C)NC(=O)[C@@H]1CSSC[C@H](NC(=O)[C@H](CCCCN)NC(=O)[C@@H](N)CCCCNC(=O)CC[C@H](NC(=O)CCCCCCCCCCCCCCCCC(=O)O)C(=O)O)C(=O)N[C@@H](CC(N)=O)C(=O)N[C@@H]([C@@H](C)O)C(=O)N[C@@H](C)C(=O)N[C@@H]([C@@H](C)O)C(=O)N1)[C@@H](C)O)C(=O)N[C@@H](CC(C)C)C(=O)N1CCC[C@H]1C(=O)N1CCC[C@H]1C(=O)N[C@H](C(=O)N[C@@H](CC(N)=O)C(=O)N[C@H](C(=O)NCC(=O)N[C@@H](CO)C(=O)N[C@@H](CC(N)=O)C(=O)N[C@H](C(=O)N[C@@H](Cc1ccc(O)cc1)C(N)=O)[C@@H](C)O)C(C)C)[C@@H](C)O

EC50 (cAMP production) [1]: 220 pM
Ratio (EC50 hCTR / EC50 hAMYR3) [1]: 6
EC50 (cAMP production) [2]: 1350 pM
Binder: K([γGlu-C18 diacid])KCNTATCATQRLANFLVHSSNN[αMeF]GPILPPTNVGSNTY-NH2 (disulfide 3-8) [Peptide 14 (SEQ ID NO: 14)]

EC50 (cAMP production) [1]: 445 pM
Ratio (EC50 hCTR / EC50 hAMYR3) [1]: 19
EC50 (cAMP production) [2]: 8450 pM
B3: Peptide 126 (SEQ ID NO: 126) (peptide)
peptide: K([γGlu-C18 diacid])KCNTATCATQRLANFL[Aib]HSS[Dab]NFGPILPPTNVGSNTY-NH2
modifications: disulfide 3-8; N-terminus assumed
SMILES: CC[C@H](C)[C@H](NC(=O)[C@@H]1CCCN1C(=O)CNC(=O)[C@H](Cc1ccccc1)NC(=O)[C@H](CC(N)=O)NC(=O)[C@H](CCN)NC(=O)[C@H](CO)NC(=O)[C@H](CO)NC(=O)[C@H](Cc1c[nH]cn1)NC(=O)C(C)(C)NC(=O)[C@H](CC(C)C)NC(=O)[C@H](Cc1ccccc1)NC(=O)[C@H](CC(N)=O)NC(=O)[C@H](C)NC(=O)[C@H](CC(C)C)NC(=O)[C@H](CCCNC(=N)N)NC(=O)[C@H](CCC(N)=O)NC(=O)[C@@H](NC(=O)[C@H](C)NC(=O)[C@@H]1CSSC[C@H](NC(=O)[C@H](CCCCN)NC(=O)[C@@H](N)CCCCNC(=O)CC[C@H](NC(=O)CCCCCCCCCCCCCCCCC(=O)O)C(=O)O)C(=O)N[C@@H](CC(N)=O)C(=O)N[C@@H]([C@@H](C)O)C(=O)N[C@@H](C)C(=O)N[C@@H]([C@@H](C)O)C(=O)N1)[C@@H](C)O)C(=O)N[C@@H](CC(C)C)C(=O)N1CCC[C@H]1C(=O)N1CCC[C@H]1C(=O)N[C@H](C(=O)N[C@@H](CC(N)=O)C(=O)N[C@H](C(=O)NCC(=O)N[C@@H](CO)C(=O)N[C@@H](CC(N)=O)C(=O)N[C@H](C(=O)N[C@@H](Cc1ccc(O)cc1)C(N)=O)[C@@H](C)O)C(C)C)[C@@H](C)O

EC50 (cAMP production) [1]: 118 pM
Ratio (EC50 hCTR / EC50 hAMYR3) [1]: 4.8
EC50 (cAMP production) [2]: 568 pM
B4: Peptide 128 (SEQ ID NO: 128) (peptide)
peptide: K([γGlu-C18 diacid])KCNTATCATQRLAEFL[Aib]HSSNNFGPILPPTNVGSNTY-NH2
modifications: disulfide 3-8; N-terminus assumed
SMILES: CC[C@H](C)[C@H](NC(=O)[C@@H]1CCCN1C(=O)CNC(=O)[C@H](Cc1ccccc1)NC(=O)[C@H](CC(N)=O)NC(=O)[C@H](CC(N)=O)NC(=O)[C@H](CO)NC(=O)[C@H](CO)NC(=O)[C@H](Cc1c[nH]cn1)NC(=O)C(C)(C)NC(=O)[C@H](CC(C)C)NC(=O)[C@H](Cc1ccccc1)NC(=O)[C@H](CCC(=O)O)NC(=O)[C@H](C)NC(=O)[C@H](CC(C)C)NC(=O)[C@H](CCCNC(=N)N)NC(=O)[C@H](CCC(N)=O)NC(=O)[C@@H](NC(=O)[C@H](C)NC(=O)[C@@H]1CSSC[C@H](NC(=O)[C@H](CCCCN)NC(=O)[C@@H](N)CCCCNC(=O)CC[C@H](NC(=O)CCCCCCCCCCCCCCCCC(=O)O)C(=O)O)C(=O)N[C@@H](CC(N)=O)C(=O)N[C@@H]([C@@H](C)O)C(=O)N[C@@H](C)C(=O)N[C@@H]([C@@H](C)O)C(=O)N1)[C@@H](C)O)C(=O)N[C@@H](CC(C)C)C(=O)N1CCC[C@H]1C(=O)N1CCC[C@H]1C(=O)N[C@H](C(=O)N[C@@H](CC(N)=O)C(=O)N[C@H](C(=O)NCC(=O)N[C@@H](CO)C(=O)N[C@@H](CC(N)=O)C(=O)N[C@H](C(=O)N[C@@H](Cc1ccc(O)cc1)C(N)=O)[C@@H](C)O)C(C)C)[C@@H](C)O

EC50 (cAMP production) [1]: 364 pM
Ratio (EC50 hCTR / EC50 hAMYR3) [1]: 19.6
EC50 (cAMP production) [2]: 7130 pM
B5: Peptide 127 (SEQ ID NO: 127) (peptide)
peptide: K([γGlu-γGlu-C18 diacid])CNTATCATQRLANFL[Aib]HSSNNFGPILPPTNVGSNTY-NH2
modifications: disulfide 2-7; N-terminus assumed
SMILES: CC[C@H](C)[C@H](NC(=O)[C@@H]1CCCN1C(=O)CNC(=O)[C@H](Cc1ccccc1)NC(=O)[C@H](CC(N)=O)NC(=O)[C@H](CC(N)=O)NC(=O)[C@H](CO)NC(=O)[C@H](CO)NC(=O)[C@H](Cc1c[nH]cn1)NC(=O)C(C)(C)NC(=O)[C@H](CC(C)C)NC(=O)[C@H](Cc1ccccc1)NC(=O)[C@H](CC(N)=O)NC(=O)[C@H](C)NC(=O)[C@H](CC(C)C)NC(=O)[C@H](CCCNC(=N)N)NC(=O)[C@H](CCC(N)=O)NC(=O)[C@@H](NC(=O)[C@H](C)NC(=O)[C@@H]1CSSC[C@H](NC(=O)[C@@H](N)CCCCNC(=O)CC[C@H](NC(=O)CC[C@H](NC(=O)CCCCCCCCCCCCCCCCC(=O)O)C(=O)O)C(=O)O)C(=O)N[C@@H](CC(N)=O)C(=O)N[C@@H]([C@@H](C)O)C(=O)N[C@@H](C)C(=O)N[C@@H]([C@@H](C)O)C(=O)N1)[C@@H](C)O)C(=O)N[C@@H](CC(C)C)C(=O)N1CCC[C@H]1C(=O)N1CCC[C@H]1C(=O)N[C@H](C(=O)N[C@@H](CC(N)=O)C(=O)N[C@H](C(=O)NCC(=O)N[C@@H](CO)C(=O)N[C@@H](CC(N)=O)C(=O)N[C@H](C(=O)N[C@@H](Cc1ccc(O)cc1)C(N)=O)[C@@H](C)O)C(C)C)[C@@H](C)O

EC50 (cAMP production) [1]: 416 pM
Ratio (EC50 hCTR / EC50 hAMYR3) [1]: 9.3
EC50 (cAMP production) [2]: 3850 pM
B6: Peptide 132 (SEQ ID NO: 132) (peptide)
peptide: K([γGlu-C18 diacid])KCNTATCATQRLANFL[Aib]HSSPNFGPILPPTNVGSNTY-NH2
modifications: disulfide 3-8; N-terminus assumed
SMILES: CC[C@H](C)[C@H](NC(=O)[C@@H]1CCCN1C(=O)CNC(=O)[C@H](Cc1ccccc1)NC(=O)[C@H](CC(N)=O)NC(=O)[C@@H]1CCCN1C(=O)[C@H](CO)NC(=O)[C@H](CO)NC(=O)[C@H](Cc1c[nH]cn1)NC(=O)C(C)(C)NC(=O)[C@H](CC(C)C)NC(=O)[C@H](Cc1ccccc1)NC(=O)[C@H](CC(N)=O)NC(=O)[C@H](C)NC(=O)[C@H](CC(C)C)NC(=O)[C@H](CCCNC(=N)N)NC(=O)[C@H](CCC(N)=O)NC(=O)[C@@H](NC(=O)[C@H](C)NC(=O)[C@@H]1CSSC[C@H](NC(=O)[C@H](CCCCN)NC(=O)[C@@H](N)CCCCNC(=O)CC[C@H](NC(=O)CCCCCCCCCCCCCCCCC(=O)O)C(=O)O)C(=O)N[C@@H](CC(N)=O)C(=O)N[C@@H]([C@@H](C)O)C(=O)N[C@@H](C)C(=O)N[C@@H]([C@@H](C)O)C(=O)N1)[C@@H](C)O)C(=O)N[C@@H](CC(C)C)C(=O)N1CCC[C@H]1C(=O)N1CCC[C@H]1C(=O)N[C@H](C(=O)N[C@@H](CC(N)=O)C(=O)N[C@H](C(=O)NCC(=O)N[C@@H](CO)C(=O)N[C@@H](CC(N)=O)C(=O)N[C@H](C(=O)N[C@@H](Cc1ccc(O)cc1)C(N)=O)[C@@H](C)O)C(C)C)[C@@H](C)O
